From patent US8975259B2, “Compositions and methods for inhibiting G protein signaling” (University of Rochester, priority 2007, dated 2015)
pIC50: −log10 of the molar value.

Tests used:
Gβ1γ2 (Gβ1 mutants) [1] = target: T1, Gβ1γ2 (Gβ1 mutants) (UniProt P54311+P63212, Y59A); assay: Phage ELISA: binding of peptide-displaying phage to wild-type or alanine-substituted b-βγ; parameters: species or system rat; conditions: Gβ1 Tyr59Ala; mean ± SD
T1 construct: made in house; host or cells: Sf9 insect cells (baculovirus), partially purified via (His)6-Gαi1 on Ni-NTA
Description: (§1) Wild-type Gβ1 and Gp1 mutants were made in the baculovirus vector PDW464 which encodes a biotinylation site at a lysine upstream of the amino terminus of Gβ1 (Goubaeva, et al. (2003) supra). Mutants were generated by overlap extension PCR using standard protocols. The wild-type and mutant Gβ1 constructs consisted of a 20 amino acid biotin acceptor peptide (BAP) sequence fused in-frame with the amino-terminus of rat Gβ1 subunit. When coexpressed with biotin holoenzyme synthetase (BirA) in Sf9 cells, the Gβ1 subunit becomes covalently biotinylated in vivo at the specific lysine acceptor residue in the BAP. Using this approach, 1-2 mg protein of purified protein can be obtained per liter of Sf9 insect cells. As 45 ng of protein is used in the phage ELISA assay, a single purification is sufficient for 10,000 to 30,000 binding assays.
(§2) Phage ELISA assays used to assess peptide binding to wild-type and mutant b-βγ were performed according to standard methods (Smrcka and Scott (2002) Methods Enzymol. 344:557-76). Briefly, 1 μg streptavidin was immobilized in the well of a […] overnight at 4° C. The wells were blocked with 100 μL of 2% bovine serum albumin (BSA) in Tris-buffered saline (TBS) for 1 hour at 4° C. followed by three washes of IX TBS/0.5% TWEEN®. Forty μL of 25 nM bGβ1γ2 in TBS/0.5% TWEEN® was added to each well and incubated at 4° C. for 1.5 hour. The wells were washed, followed by the addition of IxIO^6 to IxIO^10 phage particles and incubated at 4° C. for 3 hours. The wells were then washed six times with TBS/0.5% TWEEN® followed by addition of 40 μL of 1:5000 dilution of anti-M13 antibody (Pharmacia, Uppsala, Sweden) and incubated at room temperature for 1 hour. The wells were washed, followed by the addition of 40 μL of (2,2′-Azino-bis (3-ethylbenzthiazoline)-6-sulfonic acid (ABTS) and the colorimetric reaction was monitored at 405 nm. Nonspecific binding was subtracted for each reading.
(§3) The nine peptides were selected to represent the different consensus groups of peptides previously identified (See Scott et al. (2001) supra; Table 15) and to compare binding characteristics within and between consensus groups. […] As disclosed herein, the binding signal obtained in the ELISA assay was correlated to a loss in affinity by comparing the results to behavior of the peptide in a solution based assay. […] For the purposes of present disclosure, any substitution that decreased the binding to less than 20% of the wild-type binding was considered to be a critical binding contact for that peptide.

Gβ1γ2 (Gβ1 mutants) [2] = target: T2, Gβ1γ2 (Gβ1 mutants) (UniProt P54311+P63212, M101A); assay: as above; parameters: species or system rat; conditions: Gβ1 Met101Ala; mean ± SD
T2 construct: made in house; host or cells: Sf9 insect cells (baculovirus), partially purified via (His)6-Gαi1 on Ni-NTA
Description: as §1, §2, §3

Gβ1γ2 (Gβ1 mutants) [3] = target: T3, Gβ1γ2 (Gβ1 mutants) (UniProt P54311+P63212, R314A); assay: as above; parameters: species or system rat; conditions: Gβ1 Arg314Ala; mean ± SD
T3 construct: made in house; host or cells: Sf9 insect cells (baculovirus), partially purified via (His)6-Gαi1 on Ni-NTA
Description: as §1, §2, §3

Gβ1γ2 (Gβ1 mutants) [4] = target: T4, Gβ1γ2 (Gβ1 mutants) (UniProt P54311+P63212, D186A); assay: as above; parameters: species or system rat; conditions: Gβ1 Asp186Ala; mean ± SD
T4 construct: made in house; host or cells: Sf9 insect cells (baculovirus), partially purified via (His)6-Gαi1 on Ni-NTA
Description: as §1, §2, §3

Gβ1γ2 (Gβ1 mutants) [5] = target: T5, Gβ1γ2 (Gβ1 mutants) (UniProt P54311+P63212, H311A); assay: as above; parameters: species or system rat; conditions: Gβ1 His311Ala; mean ± SD
T5 construct: made in house; host or cells: Sf9 insect cells (baculovirus), partially purified via (His)6-Gαi1 on Ni-NTA
Description: as §1, §2, §3

Gβ1γ2 (Gβ1 mutants) [6] = target: T6, Gβ1γ2 (Gβ1 mutants) (UniProt P54311+P63212, K57A); assay: as above; parameters: species or system rat; conditions: Gβ1 Lys57Ala; mean ± SD
T6 construct: made in house; host or cells: Sf9 insect cells (baculovirus), partially purified via (His)6-Gαi1 on Ni-NTA
Description: as §1, §2, §3

Gβ1γ2 (Gβ1 mutants) [7] = target: T7, Gβ1γ2 (Gβ1 mutants) (UniProt P54311+P63212, W332A); assay: as above; parameters: species or system rat; conditions: Gβ1 Trp332Ala; mean ± SD
T7 construct: made in house; host or cells: Sf9 insect cells (baculovirus), partially purified via (His)6-Gαi1 on Ni-NTA
Description: as §1, §2, §3

Gβ1γ2 (Gβ1 mutants) [8] = target: T8, Gβ1γ2 (Gβ1 mutants) (UniProt P54311+P63212, L117A); assay: as above; parameters: species or system rat; conditions: Gβ1 Leu117Ala; mean ± SD
T8 construct: made in house; host or cells: Sf9 insect cells (baculovirus), partially purified via (His)6-Gαi1 on Ni-NTA
Description: as §1, §2, §3

Gβ1γ2 (Gβ1 mutants) [9] = target: T9, Gβ1γ2 (Gβ1 mutants) (UniProt P54311+P63212, M188A); assay: as above; parameters: species or system rat; conditions: Gβ1 Met188Ala; mean ± SD
T9 construct: made in house; host or cells: Sf9 insect cells (baculovirus), partially purified via (His)6-Gαi1 on Ni-NTA
Description: as §1, §2, §3

Gβ1γ2 (Gβ1 mutants) [10] = target: T10, Gβ1γ2 (Gβ1 mutants) (UniProt P54311+P63212, W99A); assay: as above; parameters: species or system rat; conditions: Gβ1 Trp99Ala; mean ± SD
T10 construct: made in house; host or cells: Sf9 insect cells (baculovirus), partially purified via (His)6-Gαi1 on Ni-NTA
Description: as §1, §2, §3

Gβ1γ2 (Gβ1 mutants) [11] = target: T11, Gβ1γ2 (Gβ1 mutants) (UniProt P54311+P63212, Y145A); assay: as above; parameters: species or system rat; conditions: Gβ1 Tyr145Ala; mean ± SD
T11 construct: made in house; host or cells: Sf9 insect cells (baculovirus), partially purified via (His)6-Gαi1 on Ni-NTA
Description: as §1, §2, §3

Gβ1γ2 (Gβ1 mutants) [12] = target: T12, Gβ1γ2 (Gβ1 mutants) (UniProt P54311+P63212, D246S); assay: as above; parameters: species or system rat; conditions: Gβ1 Asp246Ser; mean ± SD
T12 construct: made in house; host or cells: Sf9 insect cells (baculovirus), partially purified via (His)6-Gαi1 on Ni-NTA
Description: as §1, §2, §3

Gβ1γ2 (Gβ1 mutants) [13] = target: T13, Gβ1γ2 (Gβ1 mutants) (UniProt P54311+P63212, N230A); assay: as above; parameters: species or system rat; conditions: Gβ1 Asn230Ala; mean ± SD
T13 construct: made in house; host or cells: Sf9 insect cells (baculovirus), partially purified via (His)6-Gαi1 on Ni-NTA
Description: as §1, §2, §3

PLCβ3 = assay: Gβ1γ2-dependent activation of purified PLCβ3; assay type: biochemical; conditions: Table 4; read-out: PLC β3 IC50
Procedure: (§4) Purified PLCβ2 (0.25 ng) was assayed in the presence (▴) or absence (▪) of 100 nM purified Gβ1γ2. […] Assays contained 10 ng of purified p101/p110 PI3Kγ heterodimer with or without 100 nM purified Gβ1γ2. Left panel: (▴) 100 nM Gβ1γ2 or (▪) no βγ. […] M119 or M201 and 25 nM purified GRK2 were added simultaneously to 250 nM biotinylated Gβ1γ2 (bGβ1γ2) immobilized on streptavidin agarose. GRK2 was detected with antibody to GRK2. Data are representative (mean ±SEM, except D) repeated at least three times each. […] 30 nM bGβ1γ2 was incubated with either 30 nM PLCβ2 or PLCβ3 in the presence or absence of M119 or M201 for 16 h at 4° C. before precipitation with avidin agarose and detection with PLCβ2,or Gβ antibodies. […] Same as 4E with PLCβ3.
The ability of NSC119910 analogs to selectively modulate activation PLC-β2 and -β3 was analyzed. In this assay, PLC-β2 and PLC-β3 were purified and PLC enzymatic activity was measured in the presence or absence of purified βy and in the presence or absence of analog.
(§5) Nevertheless, M119 and M201 were tested in in vitro reconstitution assays of Gβγ-dependent activation of PLCβ2, PLCβ3 and PI3Kγ and binding to GRK2. […] These are only two of multiple diverse compounds identified, indicating potential for multiple modes of Gβγ-dependent target modulation by these small molecules.

PI3Kγ = assay: Gβ1γ2-dependent activation of purified p101/p110 PI3Kγ; assay type: biochemical; conditions: Table 5; read-out: PI3Kγ IC50
Procedure: as §4, §5

Row | Compound | % of Wild-Type Signal (Gβ1γ2 (Gβ1 mutants) [1]) | % of Wild-Type Signal (Gβ1γ2 (Gβ1 mutants) [2]) | % of Wild-Type Signal (Gβ1γ2 (Gβ1 mutants) [3]) | % of Wild-Type Signal (Gβ1γ2 (Gβ1 mutants) [4]) | % of Wild-Type Signal (Gβ1γ2 (Gβ1 mutants) [5]) | % of Wild-Type Signal (Gβ1γ2 (Gβ1 mutants) [6]) | % of Wild-Type Signal (Gβ1γ2 (Gβ1 mutants) [7]) | % of Wild-Type Signal (Gβ1γ2 (Gβ1 mutants) [8]) | % of Wild-Type Signal (Gβ1γ2 (Gβ1 mutants) [9]) | % of Wild-Type Signal (Gβ1γ2 (Gβ1 mutants) [10]) | % of Wild-Type Signal (Gβ1γ2 (Gβ1 mutants) [11]) | % of Wild-Type Signal (Gβ1γ2 (Gβ1 mutants) [12]) | % of Wild-Type Signal (Gβ1γ2 (Gβ1 mutants) [13]) | pIC50 (PLCβ3) | pIC50 (PI3Kγ)
1 | WCPPKAMTQLGIKAC [Compound C14] | 3.6 ± 2.0% | 1.1 ± 4.9% | 3.9 ± 7.9% | 3.6 ± 1.9% | 6.1 ± 3.4% | 3.0 ± 5.0% | 1.6 ± 2.4% | 3.8 ± 9.2% | 9.9 ± 3.8% | 10.1 ± 3.3% | 1.9 ± 5.9% | 6.3 ± 13.9% | 60.0 ± 26.5% | – | –
2 | Nc1ccc(-c2ccc(Nc3cc(S(=O)(=O)O)c(N)c4c3C(=O)c3ccccc3C4=O)cc2)c(S(=O)(=O)O)c1 [drawing 61] | – | – | – | – | – | – | – | – | – | – | – | – | – | 4.21 | –
3 | SCGHGLKVQSTIGACA [Compound 3C] | 8.5 ± 6.4% | −4.2 ± 5.5% | 8.3 ± 3.6% | 35.0 ± 17.2% | 30.5 ± 18.9% | 3.6 ± 7.5% | −0.3 ± 1.7% | 10 ± 13.3% | −5.7 ± 5.6% | −0.5 ± 5.9% | 2.7 ± 10.5% | 2.0 ± 2.7% | 4.1 ± 4.4% | – | –
4 | SCEKRYGIEFCT [Compound C4] | 7.6 ± 9.6% | 61.2 ± 30.9% | 1.4 ± 1.0% | 51.3 ± 15.0% | 36.5 ± 8.3% | −0.2 ± 1.9% | 1.7 ± 3.0% | 18.4 ± 7.1% | 127.5 ± 22.4% | 67.0 ± 15.2% | 4.4 ± 3.8% | 35.8 ± 7.4% | 11.5 ± 6.0% | – | –
5 | Nc1cccc(Nc2cc(S(=O)(=O)O)c(N)c3c2C(=O)c2ccccc2C3=O)c1 [drawing 60] | – | – | – | – | – | – | – | – | – | – | – | – | – | 4.82 | –
6 | Nc1cccc(Nc2cc(S(=O)(=O)O)c(N)c3c2C(=O)c2ccccc2C3=O)c1 [drawing 64] | – | – | – | – | – | – | – | – | – | – | – | – | – | – | 5.22
7 | Nc1ccc(-c2ccc(Nc3cc(S(=O)(=O)O)c(N)c4c3C(=O)c3ccccc3C4=O)cc2)c(S(=O)(=O)O)c1 [drawing 65] | – | – | – | – | – | – | – | – | – | – | – | – | – | – | 4.80
8 | SCKRTKAQILLAPCT [Compound C1] | 0.3 ± 0.7% | 70.5 ± 35.3% | 2.8 ± 1.6% | 1.4 ± 1.7% | 3.0 ± 4.0% | 0.1 ± 1.6% | −0.3 ± 2.5% | 5.2 ± 3.1% | 4.0 ± 3.4% | 1.2 ± 2.7% | 88.0 ± 29.9% | 2.3 ± 3.0% | 19.8 ± 12.3% | – | –
